Reference: PMC6238537

What was measured:
Assay in all cases: solid-phase binding assay
[1] = molecular target: recombinant integrin αvβ5, P06756;P18084; conditions: read off a plot
[2] = molecular target: recombinant integrin αvβ3, P06756;P05106; conditions: read off a plot
[3] = molecular target: recombinant integrin α9β1, Q13797;P05556; conditions: parent: est. 0.11; read off a plot
recombinant integrin α9β1, Q13797;P05556, sequence (chain, as listed by the source, chain 1 of 2): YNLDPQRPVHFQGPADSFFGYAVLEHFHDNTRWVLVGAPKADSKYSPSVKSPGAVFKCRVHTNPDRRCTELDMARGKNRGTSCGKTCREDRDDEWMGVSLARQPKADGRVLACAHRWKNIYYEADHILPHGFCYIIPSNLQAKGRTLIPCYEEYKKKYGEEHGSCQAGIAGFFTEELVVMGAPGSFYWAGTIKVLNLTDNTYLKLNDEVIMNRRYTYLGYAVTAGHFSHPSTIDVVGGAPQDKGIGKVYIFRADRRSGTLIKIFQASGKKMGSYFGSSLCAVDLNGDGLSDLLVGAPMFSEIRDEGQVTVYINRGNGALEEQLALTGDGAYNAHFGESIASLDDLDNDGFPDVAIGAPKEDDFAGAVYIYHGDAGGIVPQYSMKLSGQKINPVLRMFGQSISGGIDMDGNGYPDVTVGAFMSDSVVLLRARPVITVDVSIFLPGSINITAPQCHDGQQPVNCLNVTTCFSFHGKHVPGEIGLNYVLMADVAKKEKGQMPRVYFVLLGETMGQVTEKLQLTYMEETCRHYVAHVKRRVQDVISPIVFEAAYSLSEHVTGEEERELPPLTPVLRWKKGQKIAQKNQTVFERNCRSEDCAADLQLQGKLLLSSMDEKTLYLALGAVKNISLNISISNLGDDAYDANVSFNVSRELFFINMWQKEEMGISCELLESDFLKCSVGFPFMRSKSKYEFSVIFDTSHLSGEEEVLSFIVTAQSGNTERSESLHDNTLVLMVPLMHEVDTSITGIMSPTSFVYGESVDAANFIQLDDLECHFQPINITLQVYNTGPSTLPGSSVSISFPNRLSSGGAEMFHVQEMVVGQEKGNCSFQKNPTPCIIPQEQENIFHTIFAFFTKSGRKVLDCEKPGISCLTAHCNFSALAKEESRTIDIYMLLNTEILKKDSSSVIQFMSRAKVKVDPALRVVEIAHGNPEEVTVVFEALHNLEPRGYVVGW
recombinant integrin α9β1, Q13797;P05556, sequence (chain, as listed by the source, chain 2 of 2): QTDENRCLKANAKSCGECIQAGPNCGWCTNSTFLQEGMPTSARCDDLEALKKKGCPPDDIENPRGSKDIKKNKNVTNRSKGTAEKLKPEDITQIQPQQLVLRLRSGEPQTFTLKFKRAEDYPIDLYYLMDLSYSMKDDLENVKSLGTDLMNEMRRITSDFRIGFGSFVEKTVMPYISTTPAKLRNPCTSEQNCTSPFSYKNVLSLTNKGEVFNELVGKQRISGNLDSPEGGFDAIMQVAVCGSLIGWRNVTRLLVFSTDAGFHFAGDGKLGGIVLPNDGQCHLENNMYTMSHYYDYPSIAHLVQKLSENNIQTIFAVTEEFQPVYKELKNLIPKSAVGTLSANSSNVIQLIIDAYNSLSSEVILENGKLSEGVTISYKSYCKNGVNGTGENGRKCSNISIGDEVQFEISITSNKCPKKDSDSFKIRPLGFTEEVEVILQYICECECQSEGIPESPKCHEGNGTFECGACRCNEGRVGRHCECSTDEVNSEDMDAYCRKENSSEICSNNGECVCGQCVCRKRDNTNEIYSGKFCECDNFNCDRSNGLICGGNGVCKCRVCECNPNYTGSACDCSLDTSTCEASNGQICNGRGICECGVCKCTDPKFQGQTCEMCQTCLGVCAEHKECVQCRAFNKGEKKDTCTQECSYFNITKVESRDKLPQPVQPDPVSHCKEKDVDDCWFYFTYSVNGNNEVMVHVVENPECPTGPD

Substance | response (absorbance at 490 nm) ([1]; parent: est. 0.26) | response (absorbance at 490 nm) ([2]; parent: est. 0.15) | response (absorbance at 490 nm) ([1]; parent: est. 1.4) | response (absorbance at 490 nm) [3] | response (absorbance at 490 nm) ([2]; parent: est. 0.53)
recombinant human laminin-111 (from UniProt P25391;P07942;P11047) γ1:EQ (γ1C-Glu to Gln) | 0.27 | 0.17 |  |  | 
recombinant human laminin-511, O15230;P07942;P11047 γ1:EQ (γ1C-Glu to Gln) |  |  | 1.6 | 0.13 | 0.62
